Paper PMC3777412

Assays:
pY580 peptide (human) = assay: SPR
pY542 peptide (human) = assay: SPR

Kd (pY580 peptide (human)): 294 µM | Kd (pY542 peptide (human)): 15.1 µM
Substance: C-SH2 domain of Shp2, histidine-tagged (domain or fragment)
